Laboratory results as given in PMC4960544, “Production of full-length soluble Plasmodium falciparum RH5 protein vaccine using a Drosophila melanogaster Schneider 2 stable cell line system” (Scientific Reports, 2016).
Substitutions are numbered along the chain they refer to.

What was measured:
Assay in all cases: SPR; basigin immobilised on a CM5 chip by amine coupling (850 RU); PfRH5 variant injected at 8-0.0625 uM, 120 s at 30 uL/min, 300 s dissociation; 20 C; 10 mM HEPES pH 7.4, 150 mM NaCl, 3 mM EDTA, 0.005% Tween-20, 2 mg/mL dextran, 1 mg/mL salmon sperm DNA; blank surface subtracted; global 1:1 interaction model
Conditions in all cases: both partners purified
[1] = biological target: T1, PfRH5 protein variant version 3.0 (3D7 sequence, four putative N-linked glycosylation sites mutated Asn to … (Plasmodium falciparum (3D7 clone), UniProt Q8IFM5 26-526, N38Q | N214Q | Asn to Gln at N284 | Asn to Gln at N297))
T1 construct: the four putative N-linked glycosylation sites (N38, N214, N284, N297) mutated Asn to Gln; The construct has an N-terminal BiP insect signal peptide (…); No cleavage site for the His6 tag is described; also called PfRH5 v3.0; v3.0
T1 sequence: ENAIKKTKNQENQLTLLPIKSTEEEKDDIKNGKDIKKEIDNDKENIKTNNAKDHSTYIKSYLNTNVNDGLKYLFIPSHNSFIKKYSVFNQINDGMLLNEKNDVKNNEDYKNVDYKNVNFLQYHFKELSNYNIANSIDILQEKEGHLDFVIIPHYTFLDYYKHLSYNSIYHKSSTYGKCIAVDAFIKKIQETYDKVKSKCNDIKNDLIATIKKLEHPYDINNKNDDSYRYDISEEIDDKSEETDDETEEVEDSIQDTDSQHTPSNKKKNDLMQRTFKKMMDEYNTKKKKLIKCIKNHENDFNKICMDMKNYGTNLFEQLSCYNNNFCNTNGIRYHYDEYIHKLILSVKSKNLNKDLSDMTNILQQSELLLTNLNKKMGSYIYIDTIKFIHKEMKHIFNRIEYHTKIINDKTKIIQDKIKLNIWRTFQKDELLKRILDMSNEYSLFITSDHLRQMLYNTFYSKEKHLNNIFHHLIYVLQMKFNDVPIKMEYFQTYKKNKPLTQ

[2] = biological target: T2, PfRH5 protein variant version 1.0 (7G8 sequence, four N-linked glycosylation sequons mutated Thr to Ala) (Plasmodium falciparum (7G8 …, UniProt Q8IFM5 26-526, C203Y | Thr to Ala in the sequon starting at N38 (position 40 worked out) | Thr …))
T2 construct: The construct has an N-terminal 18-residue BiP insect signal peptide (…) in place of the native one; No cleavage site for the His6 tag is described; also called PfRH5 v1.0; v1.0
T2 sequence: T1 sequence with Q13N, T15A, C178Y, Q189N, T191A, Q259N, T261A, Q272N, T274A

[3] = biological target: T3, PfRH5 protein variant version 2.0 (3D7 sequence, four N-linked glycosylation sequons mutated Thr to Ala) (Plasmodium falciparum (3D7 clone), UniProt Q8IFM5 26-526, Thr to Ala in the sequon starting at N38 (position 40 worked out) | Thr to Ala …)
T3 construct: The construct has an N-terminal BiP insect signal peptide (…); No cleavage site for the His6 tag is described; also called PfRH5 v2.0; v2.0
T3 sequence: T1 sequence with Q13N, T15A, Q189N, T191A, Q259N, T261A, Q272N, T274A

Measured: binding result

B1: recombinant basigin, immunoglobulin domains 1 and 2 of the short isoform (22-205) (domain or fragment)
chain: GAAGTVFTTVEDLGSKILLTCSLNDSATEVTGHRWLKGGVVLKEDALPGQKTEFKVDSDDQWGEYSCVFLPEPMGTANIQLHGPPRVKAVKSSEHINEGETAMLVCKSESVPPVTDWAWYKITDSEDKALMNGSESRFFVSSSQGRSELHIENLNMEADPGQYRCNGTSSKGSDQAIITLRVRSH
notes: additional glycine left at the N-terminus from the TEV cleavage site; basigin (CD147), immunoglobulin domains 1 and 2 of the short isoform, residues 22-205; numbers count on: the short isoform; basigin is spoken of as the red blood cell receptor of the human malaria parasite; also called CD147; PfRH5 receptor; not shown: His6, N-terminal, cleaved
binds: all assays above
